According to paper PMC12931240 (2025):

Biological target: NP‐WT S nanoparticles (nanoparticles coated with WT spike proteins) (SARS-CoV-2)
Experiment: SPR

B1: P5‐1C8 IgG (full‐length) (antibody, V domains shown)
VH: EVQLVESGGGLIQPGGSLRLSCAASEIIVSRNYMNWVRQAPGKGLEWVSVIYSGGSTFYADSVKGRFTISRDNSENTLYLQMNSLRAEDTAVYYCARGYGDYYFDYWGRGTLVTVSS
VL: not shown
Question: With B1 as the binder, how does the koff read?
Answer: The koff was 2.19e-05 s⁻¹.
